According to patent publication US20250108138A1, “TH[…] CONJUGATES” (MERCK PATENT GMBH, priority 2022, published 2025):

How the values were obtained:
[1] = n-octanol/PBS distribution coefficient (log D); type: physicochemical; conditions: n-octanol/PBS pH 7.4, mean±SD
Description: Example 5: PBS/n-Octanol Distribution Coefficient (Log D Values) The n-octanol/PBS distribution coefficients (log D values) were determined for each folate radioconjugate of the disclosure and a reference compound in order to assess their hydrophilic/hydrophobic properties. The log D values of the folate radioconjugates of the disclosure (50 MBq/nmol) were determined as previously reported, after dilution in PBS pH 7.4 to obtain an activity concentration of 10 MBq/500 μL. A sample of each radiofolate (ca. 0.5 MBq, 25 μL, 0.01 nmol) was added to a mixture of 1475 μL PBS pH 7.4 and 1500 μL n-octanol. The vials were vortexed vigorously for 1 min followed by centrifugation for 6 min at 2500 rpm for phase separation. An aliquot was taken from each phase and measured in a gamma-counter (Perkin Elmer, Wallac Wizard 1480). The distribution coefficients were calculated as the logarithm of the ratio of counts per minute (cpm) measured in the n-octanol phase relative to the cpm measured in the PBS phase. The results were listed as mean±SD of the data obtained from 3-4 independent experiments, each performed with five replicates.

[2] = target: T1, albumin in mouse blood plasma (Mus musculus, UniProt P07724); assay: Albumin-bound fraction, ultrafiltration filter assay, mouse blood plasma; type: in vitro ADME; conditions: 37° C., 30 min, percentage of total activity measured
T1 construct: tissue Rockland Immunochemicals, Inc., USA; host or cells: mouse blood plasma
Description: (§1) Albumin-binding properties were determined in mouse and human blood plasma. The albumin-binding properties of the folate radioconjugates of the disclosure in mouse blood plasma (Rockland Immunochemicals, Inc., USA) and human blood plasma (Stiftung Blutspende SRK Aargau-Solothurn, Switzerland) were determined using an ultrafiltration method (Deberle, L. M. et al., Molecules 2020, 25, (11)). The amount of serum albumin in mouse (MSA) and human (HSA) blood plasma was defined as 550 μM and 800 μM, respectively, based on measurements using a dry chemistry analyzer (DRI-CHEM 4000i, FUJIFILM, Japan). The folate radioconjugates of the disclosure (50 MBq/nmol, ca. 300 kBq, 0.006 nmol in 15 μL) were added to samples of mouse and human blood plasma (150 μL), followed by incubation of the samples at 37° C. for 30 min. The samples were loaded on Amicon centrifugal filters (cut-off of 10 kDa; Merck Millipore) followed by centrifugation (14,000 rcf, 30 min, 4° C.) to allow the separation of the plasma-bound from the plasma-unbound (free) fractions of each sample. […] The activity of the protein-bound fraction as well as the activity in the filtrate and in the filter unit were measured separately in a gamma-counter (Perkin Elmer, Wallac Wizard 1480). The percentage of radioconjugate bound to mouse and human albumin, respectively, was set in relation to the total activity measured (Table 4).

[3] = target: T2, albumin in human blood plasma (Homo sapiens, UniProt P02768); assay: Albumin-bound fraction, ultrafiltration filter assay, human blood plasma; type: in vitro ADME; conditions: 37° C., 30 min, percentage of total activity measured
T2 construct: tissue Stiftung Blutspende SRK Aargau-Solothurn, Switzerland; host or cells: human blood plasma
Description: as §1

[4] = target: T3, mouse serum albumin (MSA) (Mus musculus, UniProt P07724); assay: Relative albumin-binding affinity (B50), mouse blood plasma; type: in vitro ADME; conditions: inverse ratio of B50, normalized to [^177Lu]Lu-OxFol-1 (set as 1.0)
T3 construct: The amount of serum albumin in mouse (MSA) and human (HSA) blood plasma was defined as 550 μM and 800 μM; tissue Rockland Immunochemicals, Inc., USA; host or cells: mouse blood plasma
Description: (§2) Relative albumin-binding affinity of the folate radioconjugates of the disclosure: The albumin-binding affinity of the folate radioconjugates of the disclosure was assessed and compared to that of [^177Lu]Lu-OxFol-1. A fixed amount of radioconjugate (50 MBq/nmol), ^˜300 kBq, 15 μL, 0.006 nmol) was added to a defined volume (150 μL) of mouse and human blood plasma and various dilutions thereof in PBS pH 7.4, resulting in defined mouse serum albumin (MSA)-to-folate radioconjugate or human serum albumin (HSA)-to-folate radioconjugate molar concentration ratios ranging from 0.01 to 12′500 and 0.01 to 20′000, respectively. The albumin-bound fraction was determined using an ultrafiltration device as described above.
(§3) The data were analyzed using a semi-logarithmic plot assuming a maximum binding of 100%. The Hill equation was fitted to the data points and the half-maximum binding (B50) was determined based on the obtained binding curves (GraphPad Prism software, version 8). The relative albumin-binding affinities were defined as the inverse ratio of the B50 value of each radioconjugate of the disclosure to the reference compound [^177Lu]Lu-OxFol-1 (set as 1.0). […] The results were presented as average±SD of 2-3 independent experiments (Table 5).

[5] = target: T4, human serum albumin (HSA) (Homo sapiens, UniProt P02768); assay: Relative albumin-binding affinity (B50), human blood plasma; type: in vitro ADME; conditions: inverse ratio of B50, normalized to [^177Lu]Lu-OxFol-1 (set as 1.0)
T4 construct: tissue Stiftung Blutspende SRK Aargau-Solothurn, Switzerland; host or cells: human blood plasma
Description: as §2, §3

FR = target: T5, FR (Homo sapiens, UniProt P15328); assay: FR-binding affinity (KD) on FR-positive IGROV-1 cells; conditions: 1 h at 4° C., specific binding (excess folic acid block)
T5 construct: FR-positive IGROV-1 cells (human ovarian carcinoma cell line); endogenous in cells; host or cells: IGROV-1 human ovarian carcinoma cells
Description: The determination of the KD values was performed as previously reported (Deberle, L. M. et al; Bioconj Chem 2021, 32, p. 1617). FR-positive IGROV-1 cells (human ovarian carcinoma cell line, kindly provided by Dr. Gerrit Janssen, Free University Medical Center Amsterdam, The Netherlands) were seeded in 48-well plates (2.5×10^5 cells/well) in 500 μL FFRPMI medium with supplements. The cells were incubated at 37° C. and 5% CO2 to allow cell adhesion overnight. The experiment was performed on ice using ice-cold medium and buffer solutions. After removal of the supernatant, the cells were rinsed once with PBS prior to the addition of FFRPMI medium without supplements (450 μL/well). The respective folate radioconjugate of the disclosure (20 MBq/nmol) was added to each well at variable concentrations (in the range of 0.1 to 500 nM, 50 μL per well). […] The IGROV-1 tumor cells were incubated for 1 h at 4° C. on a shaker, followed by removal of the supernatants and rinsing the cells twice with PBS. After lysis of the cells with NaOH solution (1 M, aq., 500 μL), the samples were counted for activity in a γ-counter (Wallac Wizard 1480, Perkin Elmer). The counts per minute (cpm) of the specific binding (determined by subtracting the cpm of the unspecific binding from the cpm of total binding), were plotted against the molar concentration of the added folate radioconjugates of the disclosure. […]

T3 sequence (P07724 25-608): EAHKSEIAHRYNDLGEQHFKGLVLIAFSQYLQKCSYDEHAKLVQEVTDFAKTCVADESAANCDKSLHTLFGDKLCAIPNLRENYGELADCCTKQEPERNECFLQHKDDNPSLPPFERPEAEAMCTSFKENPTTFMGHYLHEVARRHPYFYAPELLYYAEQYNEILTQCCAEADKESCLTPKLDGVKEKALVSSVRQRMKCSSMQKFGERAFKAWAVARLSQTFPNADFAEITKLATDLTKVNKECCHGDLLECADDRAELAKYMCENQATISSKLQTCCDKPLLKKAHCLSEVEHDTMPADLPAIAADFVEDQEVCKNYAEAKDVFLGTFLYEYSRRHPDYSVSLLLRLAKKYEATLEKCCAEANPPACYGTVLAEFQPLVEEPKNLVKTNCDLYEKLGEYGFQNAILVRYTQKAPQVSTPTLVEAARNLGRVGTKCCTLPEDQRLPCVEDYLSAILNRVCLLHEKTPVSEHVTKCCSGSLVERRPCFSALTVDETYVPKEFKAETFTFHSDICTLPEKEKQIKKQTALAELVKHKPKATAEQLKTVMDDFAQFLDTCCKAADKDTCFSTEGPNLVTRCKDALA
T1 sequence (P07724 25-608): as above
T5 sequence (P15328 25-234): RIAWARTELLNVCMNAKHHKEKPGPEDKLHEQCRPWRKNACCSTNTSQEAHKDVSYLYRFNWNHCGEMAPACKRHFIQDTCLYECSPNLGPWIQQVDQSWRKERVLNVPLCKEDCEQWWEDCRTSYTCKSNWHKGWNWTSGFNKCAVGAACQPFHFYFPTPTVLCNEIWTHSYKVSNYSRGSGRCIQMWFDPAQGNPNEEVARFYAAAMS
T4 sequence (P02768 25-609): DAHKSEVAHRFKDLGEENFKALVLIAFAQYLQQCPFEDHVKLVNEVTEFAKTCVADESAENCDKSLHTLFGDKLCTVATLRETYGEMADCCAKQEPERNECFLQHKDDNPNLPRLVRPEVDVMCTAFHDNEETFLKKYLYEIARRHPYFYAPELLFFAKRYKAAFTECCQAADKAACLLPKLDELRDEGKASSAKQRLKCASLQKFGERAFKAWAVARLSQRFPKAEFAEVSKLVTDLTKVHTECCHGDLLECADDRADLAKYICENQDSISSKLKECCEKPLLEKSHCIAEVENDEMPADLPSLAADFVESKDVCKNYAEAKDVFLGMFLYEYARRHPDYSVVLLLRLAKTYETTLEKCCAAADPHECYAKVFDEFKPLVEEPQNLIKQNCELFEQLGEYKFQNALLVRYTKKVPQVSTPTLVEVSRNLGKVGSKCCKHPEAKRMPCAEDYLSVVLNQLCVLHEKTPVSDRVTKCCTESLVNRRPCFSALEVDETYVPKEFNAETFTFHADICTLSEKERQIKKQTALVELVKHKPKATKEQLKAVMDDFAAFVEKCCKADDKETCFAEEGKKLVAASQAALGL
T2 sequence (P02768 25-609): as above

Nc1nc2ncc(CNc3ccc(C(=O)N[C@@H](CCC(=O)N[C@@H](CCCCNC(=O)CN4CCN(CC(=O)O)CCN(CC(=O)O)CCN(CC(=O)O)CC4)C(=O)N[C@@H](CCCCNC(=O)CCCc4ccc(I)cc4)C(=O)O)C(=O)O)cc3)nc2c(=O)[nH]1 [[^177Lu]Lu-OxFol-1, metal not drawn]
logD Value [1]: −4.2 ± 0.2
Albumin-bound fraction, mouse blood plasma [2]: 90%
Albumin-bound fraction, human blood plasma [3]: 96%
Relative albumin-binding affinity, mouse plasma [4]: 1.00
Relative albumin-binding affinity, human plasma [5]: 1.00
Kd (FR): 2.8 nM
